Reference: patent US20080090254

B1: VEGF Receptor 1 Kinase (protein)
chain: RKMKRSSSEIKTDYLSIIMDPDEVPLDEQCERLPYDASKWEFARERLKLGKSLGRGAFGKVVQASAFGIKKSPTCRTVAVKMLKEGATASEYKALMTELKILTHIGHHLNVVNLLGACTKQGGPLMVIVEYCKYGNLSNYLKSKRDLFFLNKDAALHMEPKKEKMEPGLEQGKKPRLDSVTSSESFASSGFQEDKSLSDVEEEEDSDGFYKEPITMEDLISYSFQVARGMEFLSSRKCIHRDLAARNILLSENNVVKICDFGLARDIYKNPDYVRKGDTRLPLKWMAPESIFDKIYSTKSDVWSYGVLLWEIFSLGGSPYPGVQMDEDFCSRLREGMRMRAPEYSTPEIYQIMLDCWHRDPKERPRFAELVEKLGDLLQANVQQDGKDYIPINAILTGNSGFTYSTPAFSEDFFKESISAPKFNSGSSDDVRYVNAFKFMSLERIKTFEELLPNATSMFDDYQGDSSTLLASPMLKRFTWTDSKPKASLKIDLRVTSKSKESGLSDVSRPSFCHSSCGHVSEGKRRFTYDHAELERKIACCSPPPDYNSVVLYSTPPI
B2: ErbB4 Kinase (protein)
chain: RRKSIKKKRALRRFLETELVEPLTPSGTAPNQAQLRILKETELKRVKVLGSGAFGTVYKGIWVPEGETVKIPVAIKILNETTGPKANVEFMDEALIMASMDHPHLVRLLGVCLSPTIQLVTQLMPHGCLLEYVHEHKDNIGSQLLLNWCVQIAKGMMYLEERRLVHRDLAARNVLVKSPNHVKITDFGLARLLEGDEKEYNADGGKMPIKWMALECIHYRKFTHQSDVWSYGVTIWELMTFGGKPYDGIPTREIPDLLEKGERLPQPPICTIDVYMVMVKCWMIDADSRPKFKELAAEFSRMARDPQRYLVIQGDDRMKLPSPNDSKFFQNLLDEEDLEDMMDAEEYLVPQAFNIPPPIYTSRARIDSNRSEIGHSPPPAYTPMSGNQFVYRDGGFAAEQGVSVPYRAPTSTIPEAPVAQGATAEIFDDSCCNGTLRKPVAPHVQEDSSTQRYSADPTVFAPERSPRGELDEEGYMTPMRDKPKQEYLNPVEENPFVSRRKNGDLQALDNPEYHNASNGPPKAEDEYVNEPLYLNTFANTLGKAEYLKNNILSMPEKAKKAFDNPDYWNHSLPPRSTLQHPDYLQEYSTKYFYKQNGRIRPIVAENPEYLSEFSLKPGTVLPPPPYRHRNTVV
B3: PDGF Receptor β Kinase (protein)
chain: RYEIRWKVIESVSSDGHEYIYVDPMQLPYDSTWELPRDQLVLGRTLGSGAFGQVVEATAHGLSHSQATMKVAVKMLKSTARSSEKQALMSELKIMSHLGPHLNVVNLLGACTKGGPIYIITEYCRYGDLVDYLHRNKHTFLQHHSDKRRPPSAELYSNALPVGLPLPSHVSLTGESDGGYMDMSKDESVDYVPMLDMKGDVKYADIESSNYMAPYDNYVPSAPERTCRATLINESPVLSYMDLVGFSYQVANGMEFLASKNCVHRDLAARNVLICEGKLVKICDFGLARDIMRDSNYISKGSTFLPLKWMAPESIFNSLYTTLSDVWSFGILLWEIFTLGGTPYPELPMNEQFYNAIKRGYRMAQPAHASDEIYEIMQKCWEEKFEIRPPFSQLVLLLERLLGEGYKKKYQQVDEEFLRSDHPAILRSQARLPGFHGLRSPLDTSSVLYTAVQPNEGDNDYIIPLPDPKPEVADEGPLEGSPSLASSTLNEVNTSSTISCDSPLEPQDEPEPEPQLELQVEPEPELEQLPDSGCPAPRAEAEDSFL
B4: IGF-1Receptor Kinase (protein)
chain: RKRNNSRLGNGVLYASVNPEYFSAADVYVPDEWEVAREKITMSRELGQGSFGMVYEGVAKGVVKDEPETRVAIKTVNEAASMRERIEFLNEASVMKEFNCHHVVRLLGVVSQGQPTLVIMELMTRGDLKSYLRSLRPEMENNPVLAPPSLSKMIQMAGEIADGMAYLNANKFVHRDLAARNCMVAEDFTVKIGDFGMTRDIYETDYYRKGGKGLLPVRWMSPESLKDGVFTTYSDVWSFGVVLWEIATLAEQPYQGLSNEQVLRFVMEGGLLDKPDNCPDMLFELMRMCWQYNPKMRPSFLEIISSIKEEMEPGFREVSFYYSEENKLPEPEELDLEPENMESVPLDPSASSSSLPLPDRHSGHKAENGPGPGVLVLRASFDERQPYAHMNGGRKNERALPLPQSSTC

target: GST-poly(Glu, Tyr) substrate
Sequence (chain, as listed by the source): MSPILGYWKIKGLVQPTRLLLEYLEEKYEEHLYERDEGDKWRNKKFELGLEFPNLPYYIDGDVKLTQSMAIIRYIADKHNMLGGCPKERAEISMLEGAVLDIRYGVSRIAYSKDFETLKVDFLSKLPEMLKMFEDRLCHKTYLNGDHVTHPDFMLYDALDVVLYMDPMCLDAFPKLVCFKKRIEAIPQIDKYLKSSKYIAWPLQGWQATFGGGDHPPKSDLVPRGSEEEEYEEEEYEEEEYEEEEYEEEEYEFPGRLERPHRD

Protein | phosphorylation of the substrate, Western blotting with anti-phosphotyrosine
B1 | At + of all (i to vii) of FIG. 1, a single band was seen at positions where the phosphorylated GST-poly (Glu, Tyr) substrate appears
B2 | At + of all (i to vii) of FIG. 1, a single band was seen at positions where the phosphorylated GST-poly (Glu, Tyr) substrate appears
B3 | At + of all (i to vii) of FIG. 1, a single band was seen at positions where the phosphorylated GST-poly (Glu, Tyr) substrate appears
B4 | At + of all (i to vii) of FIG. 1, a single band was seen at positions where the phosphorylated GST-poly (Glu, Tyr) substrate appears
